Patent US20140256625A1, “ANTI-AMYLOIDOGENIC, ALPHA-HELIX BREAKING ULTRA-SMALL PEPTIDE THERAPEUTICS” (AGENCY FOR SCIENCE, TECHNOLOGY AND RESEARCH, priority 2011, published 2014)
Ends that are not written are not given here.

Target: Ac-KE7 (Homo sapiens, UniProt P05067)
Experiment: Rheology of Ac-KE7 mixed with inhibitor (storage modulus, gel vs solution)
Type: physicochemical
Conditions: 1.5 mM Ac-KE7 mixed with inhibitor in 1:20 molar ratio, 25° C.
From the text: Rheology. To determine the viscoelastic properties/behaviour, peptide-based hydrogels were subjected to dynamic time, strain and frequency sweep experiments using the ARES-G2 rheometer (TA Instruments, Piscataway, N.J.) with a 25.0 mm diameter stainless steel or titanium parallel plate geometry and a 0.8 mm or 1-2 mm gap distance. To ensure complete gelation and take account of the varying gelation speeds of different peptides at different concentrations, the rheology measurements were done 2 months after sample preparation. Oscillatory frequency sweep studies (measuring storage modulus (G′) vs. Angular frequency (ω)) were done at 0.1-100 rad/s using 1% strain. Oscillatory amplitude sweep studies (measuring storage modulus (G′) vs. oscillation strain % (γ)) were done using 0.01-100% strain with a constant angular frequency of 1 rad/s. All measurements were carried out at 25° C. […] The graphs display the storage moduli (G′ in Pa) as a function of (A) angular frequency (rad/sec) under 1% strain and (B) oscillation strain (%) at an angular frequency of 1 rad/sec at room temperature of 25° C. […] This can be seen from the rheological data, where the peptide-inhibitor solutions give a highly fluctuating curve for both the amplitude and frequency sweep measurements because they are in solution form; instead of a gel form.

Substance	hydrogel formation of Ac-KE7 (rheology)
Ac-LPE (Ac-Leu-Pro-Glu) [N-acetylated tripeptide Leu-Pro-Glu]	no gelation
Ac-LPG (Ac-Leu-Pro-Gly) [N-acetylated tripeptide Leu-Pro-Gly]	no gelation
